Data taken from the supplement of paper PMC9233669.
Variants at the floor of the assay were thinned out.

Tests used:
biotinyl-Phe-oxazolone = test: self-aminoacylation, catalytic enhancement (BFO) (fold over background); higher = more active; k-Seq, kA / k0A0; sequences stand for … in GGGAAUGGAUCCACAUCUACGAAUUC…UUCACUGCAGACUUGACGAAGCUG
Outline: (§1)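 Mutagenized RNA pools (0.43 μM; 21-nt variable region) were treated with 2–1250 μM of each biotinyl-aminoacyl-oxazolone. Conditions were 50 μL HEPES/NaCl/KCl/MgCl2/CaCl2 buffer, 5% acetonitrile, pH 6.9–7.0, room temperature, 90 minutes. Catalytic enhancement, the median kA relative to the uncatalyzed rate, was derived from streptavidin capture, qPCR and Illumina sequencing.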

biotinyl-Trp-oxazolone = test: self-aminoacylation, catalytic enhancement (BWO) (fold over background); higher = more active; k-Seq, kA / k0A0; sequences stand for … in GGGAAUGGAUCCACAUCUACGAAUUC…UUCACUGCAGACUUGACGAAGCUG
Outline: as §1

biotinyl-Met-oxazolone = test: self-aminoacylation, catalytic enhancement (BMO) (fold over background); higher = more active; k-Seq, kA / k0A0; sequences stand for … in GGGAAUGGAUCCACAUCUACGAAUUC…UUCACUGCAGACUUGACGAAGCUG
Outline: as §1

biotinyl-Ile-oxazolone = test: self-aminoacylation, catalytic enhancement (BIO) (fold over background); higher = more active; k-Seq, kA / k0A0; sequences stand for … in GGGAAUGGAUCCACAUCUACGAAUUC…UUCACUGCAGACUUGACGAAGCUG
Outline: as §1

biotinyl-Leu-oxazolone = test: self-aminoacylation, catalytic enhancement (BLO) (fold over background); higher = more active; k-Seq, kA / k0A0; sequences stand for … in GGGAAUGGAUCCACAUCUACGAAUUC…UUCACUGCAGACUUGACGAAGCUG
Outline: as §1

biotinyl-Val-oxazolone = test: self-aminoacylation, catalytic enhancement (BVO) (fold over background); higher = more active; k-Seq, kA / k0A0; sequences stand for … in GGGAAUGGAUCCACAUCUACGAAUUC…UUCACUGCAGACUUGACGAAGCUG
Outline: as §1

Sequence	self-aminoacylation (biotinyl-Phe-oxazolone)	self-aminoacylation (biotinyl-Trp-oxazolone)	self-aminoacylation (biotinyl-Met-oxazolone)	self-aminoacylation (biotinyl-Ile-oxazolone)	self-aminoacylation (biotinyl-Leu-oxazolone)	self-aminoacylation (biotinyl-Val-oxazolone)
AAGUUUGCUAAUAGCCGGAAG [Fam3.1 aminoacylation ribozyme variant]	3.2	2.38	1.14	1.25	1.4	1.25
AAGUUUGCUAAUAGGCGCAAA [Fam3.1 aminoacylation ribozyme variant]	1.74	1.48	1.63	1.46	1.74	1.1
AAGUUUGCUAAUAGUAGCAGG [Fam3.1 aminoacylation ribozyme variant]	1.71	0.837	1.16	1.08	1.08	0.985
AAGUUUGCUAAUAGUAGCAUG [Fam3.1 aminoacylation ribozyme variant]	1.67	1.03	0.815	1.04	0.991	0.851
AAGUUUGCUAAUAGUCACCAG [Fam3.1 aminoacylation ribozyme variant]	2.77	1.21	0.962	0.949	0.762	0.997
AAGUUUGCUAAUAGUCCUAAG [Fam3.1 aminoacylation ribozyme variant]	14.5	4.71	1.31	1.21	1.05	1.13
AAGUUUGCUAAUAGUCGAAAU [Fam3.1 aminoacylation ribozyme variant]	1.52	2	1.39	1.31	1.01	1.37
AAGUUUGCUAAUAGUCGCAGA [Fam3.1 aminoacylation ribozyme variant]	1.77	0.729	1.03	1.54	1.12	0.914
AAGUUUGCUAAUAGUCGCAGG [Fam3.1 aminoacylation ribozyme variant]	2.2	1.45	1.31	1.29	1.38	1.31
AAGUUUGCUAAUAGUCGCCAU [Fam3.1 aminoacylation ribozyme variant]	0.768	1.08	1.44	1.27	1.24	1.2
AAGUUUGCUAAUAGUCGCGAU [Fam3.1 aminoacylation ribozyme variant]	1.53	1.86	1.33	1.46	1.47	1.37
AAGUUUGCUAAUAGUCGCUGG [Fam3.1 aminoacylation ribozyme variant]	1.72	1.18	1.67	1.21	0.78	1.25
AAGUUUGCUAAUAGUCGGAAC [Fam3.1 aminoacylation ribozyme variant]	0.662	1.05	1.01	1.05	0.951	0.851
AAGUUUGCUAAUAGUCGGCAG [Fam3.1 aminoacylation ribozyme variant]	1.3	1.28	0.98	0.923	0.983	0.785
AAGUUUGCUAAUAGUCGUACG [Fam3.1 aminoacylation ribozyme variant]	1.11	0.579	0.547	0.65	0.524	0.565
AAGUUUGCUAAUAGUGGAAAG [Fam3.1 aminoacylation ribozyme variant]	0.794	0.946	1.2	1.21	0.876	0.944
AAGUUUGCUAAUAUGCGCAAG [Fam3.1 aminoacylation ribozyme variant]	1.34	1.2	0.89	0.847	0.843	0.61
AAGUUUGCUAAUAUUCGUAAG [Fam3.1 aminoacylation ribozyme variant]	0.919	0.911	0.616	0.83	0.636	0.779
AAGUUUGCUAAUGAUCGCAAG [Fam3.1 aminoacylation ribozyme variant]	0.952	0.749	0.488	0.697	0.52	0.603
AAGUUUGCUAAUGGACGCAAG [Fam3.1 aminoacylation ribozyme variant]	1.18	0.56	0.604	0.591	0.83	0.576
AAGUUUGCUAAUGGUCGCUAG [Fam3.1 aminoacylation ribozyme variant]	0.714	0.845	0.963	0.829	0.908	0.975
AAGUUUGCUAAUUGCCGCAAG [Fam3.1 aminoacylation ribozyme variant]	1.02	2.73	1.47	1.87	1.35	1.44
AAGUUUGCUAAUUUUCGCAAG [Fam3.1 aminoacylation ribozyme variant]	0.884	1.85	1.06	1.07	1.23	1.1
AAGUUUGCUACCAGUCGCAAG [Fam3.1 aminoacylation ribozyme variant]	0.754	0.552	1.47	1.12	0.891	0.912
AAGUUUGCUACGAGUCGCAAG [Fam3.1 aminoacylation ribozyme variant]	1.05	0.978	0.922	0.656	0.671	0.876
AAGUUUGCUACUAGUCACAAG [Fam3.1 aminoacylation ribozyme variant]	2.36	1.29	0.969	0.962	0.772	1.02
